One substance from patent US20250367292A1, “HLA SUPERAGONISTS AND USES THEREOF” (UNIVERSITY HEALTH NETWORK, priority 2021, published 2025) can be followed below.

This experiment addresses T1, HLA-A*24:02-restricted peptides (Homo sapiens, UniProt P04439, D101N/D140Y/D185E/E176V/E190D/F33S/G103R/G107R/I119L/I121M/I306V/K335N/L105A/L180Q/L300P/N151K/N90K/Q86E/Q94H/R106L/R138H/R89G/T104I/T345S/V100E/W191G/Y123F).
T1 construct: T2 cells transduced with the full-length HLA-A*24:02 genes tagged with ΔNGFR; Furin-SGSG-F2A-linked truncated NGFR (ΔNGFR) co-expression marker (C); expressed in transfected cells; host or cells: T2 cells, retrovirally transduced (pMX)
Description: Peptide-HLA binding assay (biotinylated peptide, SA-PE, flow cytometry). The format is cell-based. The settings on record: irrelevant control peptides. As to the method:
T2-A24 (Wild-type) cells, or T2-A24 cells with a single amino acid substitution at position 81, 82, or 83 were pulsed with 50 μg/ml of biotinylated peptide overnight at 37° C. After intensive washing, the cells were stained by PE-conjugated streptavidin (SA-PE), washed and fluorescence intensity was measured by flow cytometry analysis.
For orientation: A flow cytometer gives signals particle by particle.

Consider “HLA-A*24:02 (A81L): HLA-A*24:02 with an Ala to Leu substitution at position 81 (A81L), corresponding to SEQ ID NO: 1”, for which the “peptide presentation by T2 cells towards non-HLA-A*24:02 restricted peptides” value was “no increase”.
